Assay results as given in article PMC11281638.

Biological target: Sso7d-IN (full-length HIV-1 integrase fused to Sso7d) (not stated | HIV-1)
Assay: semi-quantitative SDS-PAGE (Coomassie) of the purified complex

| Substance | stoichiometry N (CTD per full-length IN) | stoichiometry N (IBD per full-length IN) |
| --- | --- | --- |
| IN-CTD (HIV-1 integrase residues 185-288), His-tagged (from UniProt P12497 186-289) (domain or fragment) | 0.3 |  |
| LEDGF-IBD (lens epithelium-derived growth factor IN-binding domain, residues 307-460), His-tagged (from UniProt O75475 307-460) (domain or fragment) |  | 1 |
